We go through one substance from paper PMC2954370.

For the assay, the target named is HIV-1 Env gp140 of isolate JRFL (HIV-1 isolate JRFL (clade B)) (UniProt Q75760). Briefly: ELISA. A general note: ELISA stands for enzyme-linked immunosorbent assay.

“human soluble CD4 (first two domains of the human CD4) (from UniProt P01730 26-203) (domain or fragment)” showed an EC50 of 6 nM.

As usually defined, the EC50 is the midpoint of the concentration-response curve. Higher therefore signals lower potency in that assay.
